Measured values from patent US20040254341A1 (published 2004).
Non-standard residues stand in square brackets, D forms with d. No end group written: not given here. Nle = CCCC[C@H](N)C(=O)O

B1: KTITL-↓-EVEPS (peptide)
peptide: KTITLEVEPS
B2: KTISL-↓-DVEPS (peptide)
peptide: KTISLDVEPS
B3: SEVSY-↓-EAEFR (peptide)
peptide: SEVSYEAEFR
B4: SEVSY-↓-EVEFR (peptide)
peptide: SEVSYEVEFR
B5: SEVSY-↓-DAEFR (peptide)
peptide: SEVSYDAEFR
B6: KTINnle-↓-DVDPS (peptide)
peptide: KTIN[Nle]DVDPS

Target: human Asp2 aspartyl protease (Hu-Asp2), purified enzyme used in the in vitro cleavage assays (human, UniProt P56817 46-456, limits assumed)
Sequence (P56817 46-456 Q214H limits assumed): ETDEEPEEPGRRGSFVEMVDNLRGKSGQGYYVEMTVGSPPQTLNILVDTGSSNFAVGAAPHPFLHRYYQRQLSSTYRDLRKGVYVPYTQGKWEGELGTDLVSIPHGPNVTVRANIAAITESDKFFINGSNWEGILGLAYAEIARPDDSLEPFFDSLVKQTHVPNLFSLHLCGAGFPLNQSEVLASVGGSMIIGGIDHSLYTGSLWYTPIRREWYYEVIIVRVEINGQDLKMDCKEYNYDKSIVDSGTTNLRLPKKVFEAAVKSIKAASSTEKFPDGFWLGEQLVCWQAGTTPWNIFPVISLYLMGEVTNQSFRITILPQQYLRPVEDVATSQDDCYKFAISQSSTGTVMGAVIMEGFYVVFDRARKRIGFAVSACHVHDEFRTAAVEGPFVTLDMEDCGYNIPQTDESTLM
Assay: cell-based or functional assay

Binder	activity against wild type peptide	activity against wild-type	also measured
B1	6 fold		
B2			activity against wild-type peptide: ~35 fold
B3		~40 fold	
B4	~70 fold		
B5		~9 fold	
B6			activity against peptide #3 (SEQ ID NO:134): ~10 fold reduction
